Measured values from article PMC10813304.

Columns and labels:
[1] = target: C133Q ΔLTRIN (Aedes aegypti); experiment: dynamic and static light scattering; DynaPro Nanostar; ΔLTRIN at 1 mg/mL to 20 mg/mL; also with Ca2+ or EGTA without effect
[2] = target: C133Q ΔLTRIN (Aedes aegypti); experiment: SEC; Superdex 75 after Ni-NTA and ion exchange; elution against a standard curve (between 44 kDa and 17 kDa); also with Ca2+ or EGTA/EDTA without effect
[3] = target: ΔLTRIN, truncated C-terminal LTRIN (lymphotoxin β receptor inhibitor), residues 86-210 (Aedes aegypti); experiment: dynamic and static light scattering; DynaPro Nanostar; ΔLTRIN at 1 mg/mL to 20 mg/mL; also with Ca2+ or EGTA without effect
[4] = target: ΔLTRIN, truncated C-terminal LTRIN (lymphotoxin β receptor inhibitor), residues 86-210 (Aedes aegypti); experiment: AUC; sedimentation velocity, 0.5 mg/mL, 25 mM Tris HCl, 50 mM NaCl pH 7.5, 40,000 rpm, 20 °C, continuous c(s) distribution
[5] = target: ΔLTRIN, truncated C-terminal LTRIN (lymphotoxin β receptor inhibitor), residues 86-210 (Aedes aegypti); experiment: SEC; Superdex 75 after Ni-NTA and ion exchange; elution against a standard curve (between 44 kDa and 17 kDa); also with Ca2+ or EGTA/EDTA without effect

Substance	stoichiometry N [1]	stoichiometry N [2]	stoichiometry N [3]	stoichiometry N [4]	stoichiometry N [5]
C133Q ΔLTRIN (domain or fragment)	2	2			
ΔLTRIN, truncated C-terminal LTRIN (lymphotoxin β receptor inhibitor), residues 86-210 (domain or fragment)			2	2	2
